Laboratory results from patent publication US20060142195.

Target: T1, fibrin, P02671
T1 chain 1: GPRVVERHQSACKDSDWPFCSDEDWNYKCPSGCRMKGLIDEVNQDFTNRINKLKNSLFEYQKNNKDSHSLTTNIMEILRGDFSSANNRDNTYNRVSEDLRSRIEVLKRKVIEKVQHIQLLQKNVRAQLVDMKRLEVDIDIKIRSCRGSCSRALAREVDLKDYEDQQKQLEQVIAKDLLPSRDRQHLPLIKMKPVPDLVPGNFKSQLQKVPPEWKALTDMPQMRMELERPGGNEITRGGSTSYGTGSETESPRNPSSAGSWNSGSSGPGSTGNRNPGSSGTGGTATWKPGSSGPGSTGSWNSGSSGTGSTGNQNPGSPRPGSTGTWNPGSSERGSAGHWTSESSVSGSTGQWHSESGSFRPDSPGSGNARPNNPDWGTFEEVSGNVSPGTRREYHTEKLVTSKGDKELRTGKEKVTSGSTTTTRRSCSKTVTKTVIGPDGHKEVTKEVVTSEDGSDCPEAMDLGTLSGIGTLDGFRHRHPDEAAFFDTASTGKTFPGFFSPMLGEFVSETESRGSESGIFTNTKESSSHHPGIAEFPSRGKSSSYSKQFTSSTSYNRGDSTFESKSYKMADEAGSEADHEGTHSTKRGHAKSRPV
T1 chain 2: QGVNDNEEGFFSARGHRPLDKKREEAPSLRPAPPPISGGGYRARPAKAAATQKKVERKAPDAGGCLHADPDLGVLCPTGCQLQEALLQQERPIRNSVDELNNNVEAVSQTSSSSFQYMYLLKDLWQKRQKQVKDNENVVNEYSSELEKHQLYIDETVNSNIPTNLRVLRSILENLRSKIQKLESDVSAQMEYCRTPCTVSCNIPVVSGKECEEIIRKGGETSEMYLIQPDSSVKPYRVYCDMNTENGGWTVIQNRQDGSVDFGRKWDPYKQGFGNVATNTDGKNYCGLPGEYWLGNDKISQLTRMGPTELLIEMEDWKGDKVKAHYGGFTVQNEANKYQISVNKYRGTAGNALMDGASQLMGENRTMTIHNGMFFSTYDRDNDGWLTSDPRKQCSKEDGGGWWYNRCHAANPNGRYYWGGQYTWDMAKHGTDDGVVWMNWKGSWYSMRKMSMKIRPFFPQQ
T1 chain 3: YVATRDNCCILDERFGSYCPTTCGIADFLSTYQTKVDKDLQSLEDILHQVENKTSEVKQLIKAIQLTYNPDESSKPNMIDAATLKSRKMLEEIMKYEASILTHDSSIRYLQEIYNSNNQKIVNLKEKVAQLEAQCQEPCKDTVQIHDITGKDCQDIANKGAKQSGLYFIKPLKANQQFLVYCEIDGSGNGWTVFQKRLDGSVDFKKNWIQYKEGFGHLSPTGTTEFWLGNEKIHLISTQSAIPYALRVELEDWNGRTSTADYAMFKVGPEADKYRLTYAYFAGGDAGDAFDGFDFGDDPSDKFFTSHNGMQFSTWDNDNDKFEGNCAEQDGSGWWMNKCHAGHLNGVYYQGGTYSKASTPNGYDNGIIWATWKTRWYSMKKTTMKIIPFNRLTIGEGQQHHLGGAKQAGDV

B1: modified tissue plasminogen activator with an amino acid sequence according to SEQ ID No. 1 (protein)
chain: AYGVACKDEITQMTYRRQESWLRPEVRSKRVEHCQCDRGQARCHTVPVKSCSEPRCFNGGTCQQALYFSDFVCQCPEGFAGKCCEIDTRATCYEDQGISYRGTWSTAESGAECTNWNSSALAQKPYSGRRPDAIRLGLGNHNYCRNPDRDSKPWCYVFKAGKYSSEFCSTPACSSTCGLRQYSQPQFHSTGGLFADIASHPWQAAIFAKHRRSPGERFLCGGILISSCWILSAAHCFQERFPPHHLTVILGRTYRVVPGEEEQKFEVEKYIVHKEFDDDTYDNDIALLQLKSDSSRCAQESSVVRTVCLPPADLQLPDWTECELSGYGKHEALSPFYSERLKEAHVRLYPSSRCTSQHLLNRTVTDNMLCAGDTRSGGPQANLHDACQGDSGGPLVCLNDGRMTLVGIISWGLGCGQKDVPGVYTKVTNYLDWIRDNMRP
  fibrin specificity (semi quantitative tests): showed a increased fibrin specificity in comparison to the wild type t-PA
